Literature values in patent US5861377A, “Antistasin type serine protease inhibitors” (Novartis AG, priority 1994, dated 1999).

What was measured:
[1] = target: Factor Xa (Homo sapiens, UniProt P00742); settings: data from Dunwiddie et al.
[2] = target: T1, Trypsin (Bos taurus, UniProt P00760); settings: bovine trypsin; data from Dunwiddie et al.
T1 sequence (P00760 24-246): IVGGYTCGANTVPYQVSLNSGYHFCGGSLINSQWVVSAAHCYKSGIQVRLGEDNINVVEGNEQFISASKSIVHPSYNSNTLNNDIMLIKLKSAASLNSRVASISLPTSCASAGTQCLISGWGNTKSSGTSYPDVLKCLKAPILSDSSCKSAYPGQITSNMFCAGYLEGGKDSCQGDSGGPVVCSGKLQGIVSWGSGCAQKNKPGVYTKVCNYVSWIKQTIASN

Chain of Factor Xa (P00742 235-488 limits assumed): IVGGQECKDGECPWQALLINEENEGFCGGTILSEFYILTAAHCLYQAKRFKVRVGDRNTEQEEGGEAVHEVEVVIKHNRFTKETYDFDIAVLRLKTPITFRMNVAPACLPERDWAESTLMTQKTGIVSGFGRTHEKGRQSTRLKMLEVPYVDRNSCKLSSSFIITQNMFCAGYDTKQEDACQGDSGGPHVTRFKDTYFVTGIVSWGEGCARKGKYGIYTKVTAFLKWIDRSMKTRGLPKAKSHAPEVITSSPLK
Chain of Factor Xa (P00742 41-179 partner limits assumed): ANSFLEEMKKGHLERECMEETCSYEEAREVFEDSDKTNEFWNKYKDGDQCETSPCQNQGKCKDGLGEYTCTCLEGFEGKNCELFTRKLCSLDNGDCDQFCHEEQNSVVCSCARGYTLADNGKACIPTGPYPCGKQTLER

- IC50 [1]: 1 nM
- IC50 [2]: 5 nM
B1: Antistasin: cysteine-rich serine proteinase inhibitor of 119 amino acids from the Mexican leech Haementeria officinalis; factor Xa inhibitor (protein)
chain: EGPFGPGCEEAGCPEGSACNIITDRCTCSGVRCRVHCPHGFQRSRYGCEFCKCRKEPMKATCDISECPEGMMCSRKTNKCDCKIDINCRKTCPNGLKRDKGCEYCECRFKRKLIPRLS
